Measured values taken from US20220002389A1 (IMMUNO BIOLOGICAL LABORATORIES, published 2022).

Target: HIV-1 BaL strain envelope protein (gp120) on BaL-infected CEM.NKR-CCR5 (NKR24) cells (HIV-1 BaL strain)
Assay: cell-based or functional assay

B1: Bcell-1C10 (1C10 antibody of B cell origin) (antibody, human IgG1, kappa, V domains shown)
VH: EVQLVESGGGVVQPGRSLRVSCVASGFMFSNYAMHWVRQTAGKGLEWVAIISNDGSDKYYADSVQGRFTVSRDNSQNTLFLQMSGLRPEDSGLYYCARDLDQTIPDLTAPAFEVWGQGTMVTVSS
VL: DIVMTQSPLSLAVTPGEPASISCRSSQSLLHSDGNNYLDWYLQKPGQSPQLLIYLTSNRASGVPDRFSGSGSGTDFTLKISRVEAEDVGVYFCMQSLQTWTFGQGTKVEIKR
IC50 (50% inhibitory concentration) of infection of TZM-bl cells by BaL virus, luciferase RLU; 'Dose at Y = 50': 0.097 µg/mL

B2: CHO-1C10 (1C10 antibody produced in ExpiCHO-S cells) (antibody, human IgG1, kappa, V domains shown)
VH: B1 VH
VL: B1 VL
modifications: about 70.3% core fucose-added N-glycan
IC50 (50% inhibitory concentration) of infection of TZM-bl cells by BaL virus, luciferase RLU; 'Dose at Y = 50': 0.0781 µg/mL
